Reference: patent US10350264B2, “Compositions and methods for modulating NCOA4-mediated autophagic targeting of ferritin” (Dana-Farber Cancer Institute, Inc., priority 2014, dated 2019)
Entries after “also recorded” stand apart in the source; their conditions may differ.

T1: NCOA4(aa 383-522)-GST (Homo sapiens, UniProt Q13772)
T1 construct: NCOA4(aa 383-522)-GST or GST alone was incubated with; made in house; host or cells: E. coli BL21 (DE3)
T1 sequence (Q13772 383-522): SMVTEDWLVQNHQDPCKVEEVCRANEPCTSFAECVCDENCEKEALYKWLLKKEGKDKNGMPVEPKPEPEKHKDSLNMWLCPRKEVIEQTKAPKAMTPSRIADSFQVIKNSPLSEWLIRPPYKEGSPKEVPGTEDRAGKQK

T2: HERC2-FLAG fragment (F3, HERC2 amino acids 1700-2700) (Homo sapiens, UniProt O95714)
T2 construct: HERC2-FLAG fragment (F3, HERC2 amino acids 1700-2700) was produced as described in Bekker-Jensen et al; expressed in transfected cells; host or cells: 293T cells (transient transfection, lysate used)
T2 sequence (O95714 1700-2700): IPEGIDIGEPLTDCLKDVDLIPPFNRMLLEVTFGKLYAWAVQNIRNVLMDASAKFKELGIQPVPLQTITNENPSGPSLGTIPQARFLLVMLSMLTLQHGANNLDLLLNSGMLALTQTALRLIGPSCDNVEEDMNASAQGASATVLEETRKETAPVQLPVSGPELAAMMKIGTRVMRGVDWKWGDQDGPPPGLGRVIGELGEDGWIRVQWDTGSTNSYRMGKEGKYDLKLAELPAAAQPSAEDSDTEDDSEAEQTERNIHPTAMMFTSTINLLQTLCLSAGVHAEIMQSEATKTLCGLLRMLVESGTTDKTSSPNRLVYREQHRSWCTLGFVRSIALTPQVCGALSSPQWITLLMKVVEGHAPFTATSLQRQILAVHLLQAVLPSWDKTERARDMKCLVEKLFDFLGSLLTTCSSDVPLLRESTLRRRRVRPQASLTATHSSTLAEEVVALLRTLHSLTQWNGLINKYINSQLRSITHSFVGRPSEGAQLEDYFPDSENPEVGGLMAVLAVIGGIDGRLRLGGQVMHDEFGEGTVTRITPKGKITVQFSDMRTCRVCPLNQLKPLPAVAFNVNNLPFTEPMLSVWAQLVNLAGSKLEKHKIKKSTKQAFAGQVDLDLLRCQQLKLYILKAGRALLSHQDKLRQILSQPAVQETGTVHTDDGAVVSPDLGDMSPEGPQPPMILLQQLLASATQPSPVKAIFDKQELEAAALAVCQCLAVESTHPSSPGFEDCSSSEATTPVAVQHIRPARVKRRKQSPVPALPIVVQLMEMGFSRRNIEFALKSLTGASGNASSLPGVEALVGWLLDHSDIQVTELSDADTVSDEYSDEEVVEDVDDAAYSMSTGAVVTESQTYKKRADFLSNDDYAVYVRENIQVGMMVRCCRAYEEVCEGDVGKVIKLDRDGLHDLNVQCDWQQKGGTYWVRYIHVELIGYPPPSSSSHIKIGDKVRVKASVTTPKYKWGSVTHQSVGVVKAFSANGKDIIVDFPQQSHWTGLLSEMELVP


Experiments:
NCOA4(aa 383-522)-GST = molecular target: T1, NCOA4(aa 383-522)-GST; experiment: GST pull-down assay of WT and point mutant FTH1 using NCOA4(aa 383-522)-GST; type: binding; conditions: 40 μg FTH1, InstantBlue stain; FIGS. 23A-D
Method: Beads were washed thoroughly with 150 mM NaCl, 20 mM Tris (pH 7.4), 2 mM dithiothreitol (DTT), 0.5% (w/v) Nonidet P-40, leaving 50-100 μg of GST-fusion protein bound to the beads. Beads were then mixed with 40 μg of recombinant human WT or point mutant FTH1 produced in Rosetta E. coli (EMD Millipore, 70953-3). The assay mix was incubated for 30 minutes at 4° C., and beads were washed three times with 1 ml wash buffer. Proteins were eluted with SDS sample buffer and analyzed by 4-20% gradient SDS-PAGE. InstantBlue Stain (Expedeon: catalog #ISB1L) was used to visualize GST-NCOA4 bands and FTH1 bands.

8988T and U2OS cells = experiment: chelation assay, ferritin degradation by FTH1 immunoblot; type: cell-based, human; conditions: FAC loading then chelators (DFO, BPS, DFP); FIG. 3(a)-(b), FIG. 19
Method: Chelation assays were performed similarly to those previously described with slight modifications [Asano et al., supra]. Briefly, U2OS and 8988T cells stably expressing shRNAs as described above (shGFP, shNCOA4-1, shNCOA4-2, selected with puromycin) were plated (2×10^5 cells/well) and cultured for 24 hours in FAC (36 μM or 180 μM). Cells were washed three times with PBS and subjected to iron chelation with the described chelators minus or plus lysosomal protease inhibitors (E-64d and PepstatinA) or the proteasomal inhibitor, Bortezomib. Cells were harvested at the indicated time points, washed with PBS, and lysed in 50 mM Tris-HCl (pH 7.4), 150 mM NaCl, 1% Nonidet P40, 0.1% SDS, 2 mM EDTA, 2 mM DTT, protease inhibitors and analyzed by 4-20% gradient SDS-PAGE followed by immunoblotting with the indicated antibodies. Experiments were performed at a minimum in biological triplicate. Quantitation of Western blots was performed using ImageJ [Schneider, C. A., et al. Nature Methods 9, 671-675 (2012)]. Cells were treated similarly for immunofluorescence experiments (including IMR90 and HPDE cells). Cells plated on glass coverslips were treated as described and fixed with 4% paraformaldehyde prior to immunofluorescence using anti-ferritin and anti-LAMP2. Data were collected as described above.

FTH1 = experiment: IVT-based interaction experiment with His-GST-HA tagged NCOA4 constructs and GST pull-down; type: binding; conditions: equal load of fragments; FIG. 9
[1] = molecular target: T3, apo-ferritin purified from equine spleen (Equus caballus, UniProt Q8MIP0); experiment: GST pull-down assay of ferritin using GST-NCOA4 fragments; type: binding; conditions: anti-FTH1 immunoblot
T3 construct: apo-ferritin purified from equine spleen; purchased Sigma F4503; host or cells: equine spleen
From the text: GST-tagged NCOA4 constructs were also made to probe the interactions of C-terminal portions of NCOA4 with ferritin. NCOA4-truncation constructs were produced using Gateway cloning (Invitrogen, Life Technologies, catalog #11789-013 and 11791-019) into a pDEST60 N-terminal GST fusion plasmid (GST-NCOA4) from EMD Millipore (Gateway Nova pET-60-DEST, product #71851-3) and transformed in E. coli BL21 (DE3) cells (New England Biosciences, C2527I).
NCOA4 truncation constructs were designed based on NCBI reference sequence: NP_001138735.1 (SEQ ID NO: 4). In particular, fragments of SEQ ID NO: 4 consisting of amino acids (aa) 1-245, aa 235-614, aa 235-560, aa 235-401, aa 383-560, aa 545-614, aa 383-522, aa 510-560, aa 383-436, aa 436-485, aa 475-522, aa 475-500, aa 480-500, aa 480-504, aa 485-509, aa 490-514, aa 495-522 were designed. Protein expression in the DE3 cells was induced with 1 mM isopropyl-beta-D-thiogalactopyranoside (IPTG) (Sigma, I6758-10 G) for 3 hours at 37° C. Cells were collected by centrifugation, re-suspended in 25 mM Tris-HCl (pH 7.4), 10% (w/v) sucrose and lysed with a single freeze-thaw cycle followed by sonication. After centrifugation, a GST pull-down assay was performed.
In the GST pull-down assay, lysates were incubated with 10 μl of a 50% (v/v) slurry of glutathione Sepharose 4B beads (GE Healthcare Lifesciences, 17-0756-01) for 30 minutes at 4° C. Beads were washed thoroughly with 150 mM NaCl, 20 mM Tris (pH 7.4), 2 mM dithiothreitol (DTT), 0.5% (w/v) Nonidet P-40, leaving 50-100 μg of GST-fusion protein bound to the beads. Beads were then mixed with 0.5-2 μg of apo-ferritin purified from equine spleen (Sigma F4503) or recombinant human FTH1 or FTL produced in Rosetta E. coli (EMD Millipore, 70953-3). The assay mix was incubated for 2 hours at 4° C., and beads were washed four times with 1 ml wash buffer. Proteins were eluted with SDS sample buffer and analyzed by 4-20% gradient SDS-PAGE and immunoblotting with anti-FTH1 antibody (as above) or anti-FLAG antibody (Sigma, F1804-200 UG). Pounceau stain was used to visualize GST-NCOA4 bands. (Pounceau, Sigma, P7170-1 L, protocol as per product manual).

8988T cells = experiment: NCOA4 protein levels while blocking autophagic flux (immunoblot); type: cell-based, human; conditions: CQ or BAF 8 hours, FIG. 2(c)
PANC1 cells = experiment: autophagosome formation, fluorescence microscopy of cells expressing GFP-MAP1LC3B; type: cell-based, human; conditions: Wortmannin 200 nM 1 h, chloroquine 25 μM 4 h, FIG. 13(b)
[2] = molecular target: T2, HERC2-FLAG fragment (F3, HERC2 amino acids 1700-2700); experiment: GST pull-down assay of HERC2-FLAG Fragment 3 using GST-NCOA4 fragments; type: binding; conditions: 293T lysate expressing HERC2-FLAG F3, anti-FLAG immunoblot; FIG. 12
Method: To map the interaction of NCOA-4 with HERC2, the GST-NCOA4 truncation constructs described above were also tested in a GST pull-down assay with HERC2-FLAG expressing 293T cell line. HERC2-FLAG fragment (F3, HERC2 amino acids 1700-2700) was produced as described in Bekker-Jensen et al., Nature Cell Biology (2010) 12; 80-86. The HERC2-FLAG F3 was transiently transfected into 293T cells using standard transfection procedures using PEI (Polysciences, #23966-2).
Lysates were obtained, as above, and incubated with 10 μl of a 50% (v/v) slurry of glutathione Sepharose 4B beads for 30 minutes at 4° C. Beads were washed thoroughly with 150 mM NaCl, 20 mM Tris (pH 7.4), 2 mM DTT, 0.5% (w/v) Nonidet P-40, leaving 50-100 μg of GST-fusion protein bound to the beads. Beads were then mixed with 300 μg of lysate from a HERC2-FLAG expressing 293T cell line, as above. The assay mix was incubated for 2 hours at 4° C., and beads were washed four times with 1 ml wash buffer. Proteins were eluted with SDS sample buffer and analyzed by 4-20% gradient SDS-PAGE and immunoblotting with anti-HERC2 antibody or anti-FLAG antibody, as above. Coomassie stain was used to visualize GST-NCOA4 bands as above.

T3 sequence (Q8MIP0 whole entry, the tested form may be a part): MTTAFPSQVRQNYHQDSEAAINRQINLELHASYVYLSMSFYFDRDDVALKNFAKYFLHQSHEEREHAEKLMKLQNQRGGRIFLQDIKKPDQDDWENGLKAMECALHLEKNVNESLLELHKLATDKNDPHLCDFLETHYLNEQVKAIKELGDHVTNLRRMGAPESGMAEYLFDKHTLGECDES
T3 sequence (P02791 2-175 partner limits assumed): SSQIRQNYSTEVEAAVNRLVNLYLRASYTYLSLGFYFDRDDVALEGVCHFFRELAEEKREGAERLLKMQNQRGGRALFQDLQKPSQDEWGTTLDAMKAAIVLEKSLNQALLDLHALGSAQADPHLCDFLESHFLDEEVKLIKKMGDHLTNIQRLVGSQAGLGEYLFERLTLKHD

| Molecule | ferritin degradation in response to iron chelation (8988T and U2OS cells) | pull-down of FTH1 by IVT GST-NCOA4 fragment (FTH1) | binding of GST-NCOA4 fragment to ferritin ([1]; FIGS. 7, 8, 11) | further results |
| --- | --- | --- | --- | --- |
| FTH1 R23A point mutant: recombinant human ferritin heavy chain with R23A point mutation, produced in E. coli | – | – | – | binding of FTH1 (WT or point mutant) to NCOA4(383-522)-GST (NCOA4(aa 383-522)-GST): bound only very weakly |
| 5′ CCCAGGAAGTATTACTTAATT 3′ (expressed or natural sequence) [shNCOA4-1] | rescued ferritin degradation | – | – | – |
| KAMTPSRIADSFQVIKNSPLSEWLIRPPYKEGSPKEVPGTEDRAGKQK (Homo sapien) [aa 475-522] | – | equally pulled down (bound to) FTH1 | interacted with ferritin; also recorded: bound to ferritin | binding of GST-NCOA4 fragment to ferritin ([1]; FIGS. 7, 8, 11, listed as amino acids 475-522): bind to ferritin |
| 5′ GCTGGCAAACAGAAGTTTAAA 3′ (expressed or natural sequence) [shNCOA4-2] | rescued ferritin degradation | – | – | – |
| CCN(CC)CCCC(C)Nc1ccnc2cc(Cl)ccc12 (centres unmarked) [chloroquine, Chloroquine] | – | – | – | NCOA4 protein levels (8988T cells): markedly increased; effect on autophagosomes (PANC1 cells): caused accumulation of autophagosomes |
| aa 383-522: fragment of NCOA4 SEQ ID NO: 4 (protein, GST tag; Homo sapien) SMVTEDWLVQNHQDPCKVEEVCRANEPCTSFAECVCDENCEKEALYKWLLKKEGKDKNGMPVEPKPEPEKHKDSLNMWLCPRKEVIEQTKAPKAMTPSRIADSFQVIKNSPLSEWLIRPPYKEGSPKEVPGTEDRAGKQK | – | equally pulled down (bound to) FTH1 | bind to ferritin | binding of GST-NCOA4 fragment to HERC2-FLAG [2]: bound to HERC2-FLAG |
